First the molecules themselves.
B1: MGC16075 (parent)
chain: AGSRQALSFEVPPCNYDPEKWIQ
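Also: lentivirally expressed fusions sorted by FACS into six bins by GFP to DsRed ratio, PSI derived from sequencing read proportions per bin multiplied by bin number.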

Variants of B1 are the subject of this data set. In words: protein stability index of a GFP-peptide fusion (GPS, HEK-293T) (PSI 1-6); higher = more stable. The settings on record: c terminus: native.
For the variant AGSRQALSFEMPPCNYDPEKWIQ [V11M], the protein stability index amounted to 2.11.

On to AGSRQALSFEVPGCNYDPEKWIQ [P13G], for which the protein stability index was 2.1.

Regarding AGSRQALSFEVPECNYDPEKWIQ [P13E], the protein stability index is 1.44.

AGSRQALSFEVPNCNYDPEKWIQ [P13N]: the protein stability index stood at 1.27.

AGSRQALSFEVPMCNYDPEKWIQ [P13M]: the protein stability index came to 1.3.

In the case of AGSRQALSFEVPKCNYDPEKWIQ [P13K], the protein stability index turned out to be 2.34.

On to AGSRQALSFEVPHCNYDPEKWIQ [P13H], for which the protein stability index was 1.2.

Regarding AGSRQALSFEVPDCNYDPEKWIQ [P13D], the protein stability index is 1.8.

For the variant AGSRQALSFEVPICNYDPEKWIQ [P13I], the protein stability index was 2.7.

With AGSRQALSFEVPSCNYDPEKWIQ [P13S], the protein stability index worked out at 2.66.

As for AGSRQALSFEVPWCNYDPEKWIQ [P13W], the protein stability index worked out at 1.98.

On to AGSRQALSFEVPCCNYDPEKWIQ [P13C], for which the protein stability index turned out to be 3.

As for AGSRQALSFEVPYCNYDPEKWIQ [P13Y], the protein stability index was 2.88.

As for AGSRQALSFEVPFCNYDPEKWIQ [P13F], the protein stability index was 2.1.

Turning to AGSRQALSFEVPACNYDPEKWIQ [P13A], the protein stability index is 1.43.

On to AGSRQALSFEVPRCNYDPEKWIQ [P13R], for which the protein stability index was 1.29.

As to AGSRQALSFEVPTCNYDPEKWIQ [P13T], the protein stability index is 1.99.

On to AGSRQALSFEVPLCNYDPEKWIQ [P13L], for which the protein stability index came to 1.62.

In the case of AGSRQALSFEVPVCNYDPEKWIQ [P13V], the protein stability index amounted to 2.19.

With AGSRQALSFEVPQCNYDPEKWIQ [P13Q], the protein stability index was determined as 2.03.

With AGSRQALSFEVPPCNYDPCKWIQ [E19C], the protein stability index turned out to be 1.76.

AGSRQALSFEVPPCNYDPVKWIQ [E19V]: the protein stability index was determined as 1.86.

For the variant AGSRQALSFEVPPCNYDPDKWIQ [E19D], the protein stability index was found to be 2.54.

Regarding AGSRQALSFEVPPCNYDPPKWIQ [E19P], the protein stability index turned out to be 2.28.

For the variant AGSRQALSFEVPPCNYDPMKWIQ [E19M], the protein stability index was 1.52.

On to AGSRQALSFEVPPCNYDPHKWIQ [E19H], for which the protein stability index was 2.64.

In the case of AGSRQALSFEVPPCNYDPLKWIQ [E19L], the protein stability index worked out at 3.01.

For the variant AGSRQALSFEVPPCNYDPSKWIQ [E19S], the protein stability index was 2.2.

AGSRQALSFEVPPCNYDPIKWIQ [E19I]: the protein stability index was determined as 1.84.

Consider AGSRQALSFEVPPCNYDPYKWIQ [E19Y], for which the protein stability index came out at 2.07.

For AGSRQALSFEVPPCNYDPWKWIQ [E19W], the protein stability index was determined as 2.47.

Turning to AGSRQALSFEVPPCNYDPTKWIQ [E19T], the protein stability index came to 1.97.

In the case of AGSRQALSFEVPPCNYDPQKWIQ [E19Q], the protein stability index came out at 2.72.

With AGSRQALSFEVPPCNYDPGKWIQ [E19G], the protein stability index was 2.16.

As for AGSRQALSFEVPPCNYDPKKWIQ [E19K], the protein stability index was 3.27.

On to AGSRQALSFEVPPCNYDPRKWIQ [E19R], for which the protein stability index stood at 2.14.

As for AGSRQALSFEVPPCNYDPAKWIQ [E19A], the protein stability index turned out to be 1.22.

In the case of AGSRQALSFEVPPCNYDPFKWIQ [E19F], the protein stability index came out at 2.33.

As for AGSRQALSFEVPPCNYDPEKAIQ [W21A], the protein stability index was 2.33.

For AGSRQALSFEVPPCNYDPEKDIQ [W21D], the protein stability index stood at 3.28.

On to AGSRQALSFEVPPCNYDPEKFIQ [W21F], for which the protein stability index was determined as 2.89.

Take AGSRQALSFEVPPCNYDPEKHIQ [W21H]: the protein stability index was determined as 2.32.

For AGSRQALSFEVPPCNYDPEKIIQ [W21I], the protein stability index was 4.03.

For the variant AGSRQALSFEVPPCNYDPETWIQ [K20T], the protein stability index is 3.33.

For the variant AGSRQALSFEVPPCNYDPEGWIQ [K20G], the protein stability index is 3.9.

For AGSRQALSFEVPPCNYDPECWIQ [K20C], the protein stability index was found to be 2.26.

Take AGSRQALSFEVPPCNYDPEPWIQ [K20P]: the protein stability index turned out to be 4.17.

Consider AGSRQALSFEVPPCNYDPEIWIQ [K20I], for which the protein stability index came out at 2.46.

On to AGSRQALSFEVPPCNYDPEFWIQ [K20F], for which the protein stability index worked out at 3.49.

In the case of AGSRQALSFEVPPCNYDPEAWIQ [K20A], the protein stability index is 3.93.

Take AGSRQALSFEVPPCNYDPEWWIQ [K20W]: the protein stability index was found to be 3.58.

For the variant AGSRQALSFEVPPCNYDPESWIQ [K20S], the protein stability index came out at 3.77.

On to AGSRQALSFEVPPCNYDPEYWIQ [K20Y], for which the protein stability index came to 3.78.

For AGSRQALSFEVPPCNYDPEHWIQ [K20H], the protein stability index came to 3.7.

Take AGSRQALSFEVPPCNYDPEMWIQ [K20M]: the protein stability index came out at 2.69.

Regarding AGSRQALSFEVPPCNYDPEVWIQ [K20V], the protein stability index amounted to 1.96.

On to AGSRQALSFEVPPCNYDPEQWIQ [K20Q], for which the protein stability index stood at 4.32.

Turning to AGSRQALSFEVPPCNYDPEDWIQ [K20D], the protein stability index amounted to 4.29.

For AGSRQALSFEVPPCNYDPENWIQ [K20N], the protein stability index amounted to 3.71.

As for AGSRQALSFEVPPCNYDPERWIQ [K20R], the protein stability index worked out at 1.98.

On to AGSRQALSFEVPPCQYDPEKWIQ [N15Q], for which the protein stability index came to 3.17.

Turning to AGSRQALSFEVPPCAYDPEKWIQ [N15A], the protein stability index was 1.71.

In the case of AGSRQALSFEVPPCWYDPEKWIQ [N15W], the protein stability index stood at 2.14.

With AGSRQALSFEVPPCFYDPEKWIQ [N15F], the protein stability index came out at 1.96.

AGSRQALSFEVPPCGYDPEKWIQ [N15G]: the protein stability index is 2.03.

On to AGSRQALSFEVPPCHYDPEKWIQ [N15H], for which the protein stability index stood at 1.28.

Regarding AGSRQALSFEVPPCLYDPEKWIQ [N15L], the protein stability index was 1.99.

With AGSRQALSFEVPPCRYDPEKWIQ [N15R], the protein stability index is 2.62.

As to AGSRQALSFEVPPCTYDPEKWIQ [N15T], the protein stability index came to 1.64.

Regarding AGSRQALSFEVPPCPYDPEKWIQ [N15P], the protein stability index was 2.68.

Turning to AGSRQALSFEVPPCKYDPEKWIQ [N15K], the protein stability index is 2.53.

Take AGSRQALSFEVPPCYYDPEKWIQ [N15Y]: the protein stability index is 2.7.

In the case of AGSRQALSFEVPPCSYDPEKWIQ [N15S], the protein stability index turned out to be 1.35.

As to AGSRQALSFEVPPCCYDPEKWIQ [N15C], the protein stability index came to 2.23.

For AGSRQALSFEVPPCMYDPEKWIQ [N15M], the protein stability index is 1.84.

With AGSRQALSFEVPPCEYDPEKWIQ [N15E], the protein stability index came out at 1.58.

Take AGSRQALSFEVPPCIYDPEKWIQ [N15I]: the protein stability index was determined as 2.06.

Turning to AGSRQALSFEVPPCDYDPEKWIQ [N15D], the protein stability index worked out at 1.78.

With AGSRQALSFEVPPCNYDFEKWIQ [P18F], the protein stability index was determined as 1.6.

Regarding AGSRQALSFEVPPCNYDHEKWIQ [P18H], the protein stability index worked out at 1.84.

Consider AGSRQALSFEVPPCNYDIEKWIQ [P18I], for which the protein stability index was found to be 1.92.

As to AGSRQALSFEVPPCNYDYEKWIQ [P18Y], the protein stability index was 1.87.

Consider AGSRQALSFEVPPCNYDWEKWIQ [P18W], for which the protein stability index came out at 1.1.

For the variant AGSRQALSFEVPPCNYDTEKWIQ [P18T], the protein stability index was 1.82.

Consider AGSRQALSFEVPPCNYDAEKWIQ [P18A], for which the protein stability index turned out to be 1.62.

Turning to AGSRQALSFEVPPCNYDEEKWIQ [P18E], the protein stability index was 2.79.

Turning to AGSRQALSFEVPPCNYDLEKWIQ [P18L], the protein stability index amounted to 2.72.

Regarding AGSRQALSFEVPPCNYDGEKWIQ [P18G], the protein stability index was 2.41.

For AGSRQALSFEVPPCNYDCEKWIQ [P18C], the protein stability index came to 2.3.

On to AGSRQALSFEVPPCNYDSEKWIQ [P18S], for which the protein stability index was 1.78.

Take AGSRQALSFEVPPCNYDDEKWIQ [P18D]: the protein stability index turned out to be 1.93.

Turning to AGSRQALSFEVPPCNYDVEKWIQ [P18V], the protein stability index was 1.99.

In the case of AGSRQALSFEVPPCNYDKEKWIQ [P18K], the protein stability index is 1.79.

In the case of AGSRQALSFEVPPCNYDQEKWIQ [P18Q], the protein stability index stood at 2.03.

As for AGSRQALSFEVPPCNYDMEKWIQ [P18M], the protein stability index stood at 1.91.

Consider AGSRQALSFEVPPCNYDREKWIQ [P18R], for which the protein stability index was determined as 2.36.

As for AGSRQALSFEVPPCNYDNEKWIQ [P18N], the protein stability index is 2.15.

Values taken from the supplement of paper PMC10567573.
